The values below come from patent publication EP4814018A2 (F. Hoffmann-La Roche AG, dated 2026).

Sequences and labels used below:
B1: murine anti-transferrin receptor antibody 128.1 (antibody, V domains shown)
VH: QVQLVQSGAEVKKPGASVKVSCKASGYTFTGYTMNWVRQAPGQGLEWMGRINPHNGGTDYAQKFQGRVTMTRDTSISTAYMELSRLRSDDTAVYYCARGYYYYSLDYWGQGTLVTVSS
VL: DIQMTQSPSSLSASVGDRVTITCRASSSIRYIHWYQQKPGKAPKRLIYDTSNLASGVPSRFSGSGSGTEFTLTISSLQPEDFATYYCHQRNSYPWTFGQGTRLEIK
B2: clone-299 (antibody, V domains shown)
VH: QSMEESGGRLVTPGTPLTLTCTVSGFSLSSYAMSWVRQAPGKGLEWIGYIWSGGSTDYASWAKGRFTISKTSTTVDLKITSPTTEDTATYFCARRYGTSYPDYGDANGFDPWGPGTLVTVSS
VL: AYDMTQTPASVEVAVGGTVTIKCQASQSISSYLSWYQQKPGQRPKLLIYRASTLASGVSSRFKGSGSGTQFTLTISGVECADAATYYCQQCYSSSNVDNTFGGGTEVVVK
notes: Rabbit variable domains
B3: clone 494 VH 1 / VL 0 (mu) (antibody, V domains shown)
VH: QVQLVQSGAEVKKPGASVKVSCKASGFNIKDTYIHWVIQAPGQGLEWMGRIDPANGDTKSDPKFQVRVTITADTSTSTVYMELSSLRSEDTAVYYCVRDYLYPYYFDFWGQGTTVTVSS
VL: KIVMTQSPKSMSMSVGERVTLNCRASESVDTYVSWYQQKPEQSPELLIYGASNRYTGVPDRFTGSGSATDFTLTISSVQAEDLADYYCGQTYNYPLTFGAGTKLELKR
B4: clone 494 VH 2 / VL 0 (mu) (antibody, V domains shown)
VH: B3 VH with D61A
VL: B3 VL
B5: clone 494 VH 1 / VL 4 (antibody, V domains shown)
VH: B3 VH
VL: KIVLTQSPGTLSLSPGERATLSCRASESVDTYVSWYQQKPGQAPRLLIYGASNRYTGIPDRFSGSGSGTDFTLTISRLEPEDFADYYCGQTYNYPLTFGQGTKLEI
B6: clone 494 VH 1 / VL 3 (antibody, V domains shown)
VH: B3 VH
VL: B5 VL with K1E, I58V
B7: clone 494 VH 4 / VL 2 (antibody, V domains shown)
VH: B3 VH with A16S, V66G, T74E, V79A
VL: B5 VL with I58V
B8: clone 494 VH 3 / VL 2 (antibody, V domains shown)
VH: B3 VH with V66G
VL: B5 VL with I58V
B9: clone 494 VH 4 / VL 3 (antibody, V domains shown)
VH: B3 VH with A16S, V66G, T74E, V79A
VL: B5 VL with K1E, I58V
B10: clone 494 VH 3 / VL 4 (antibody, V domains shown)
VH: B3 VH with V66G
VL: B5 VL
B11: clone 494 VH 4 / VL 0 (mu) (antibody, V domains shown)
VH: B3 VH with A16S, V66G, T74E, V79A
VL: B3 VL
B12: clone 494 VH 2 / VL 3 (antibody, V domains shown)
VH: B3 VH with D61A
VL: B5 VL with K1E, I58V
B13: clone 494 VH 2 / VL 4 (antibody, V domains shown)
VH: B3 VH with D61A
VL: B5 VL
B14: clone 494 VH 1 / VL 2 (antibody, V domains shown)
VH: B3 VH
VL: B5 VL with I58V
B15: clone 494 VH 4 / VL 1 (antibody, V domains shown)
VH: B3 VH with A16S, V66G, T74E, V79A
VL: KIQMTQSPSSLSASVGDRVTITCRASESVDTYVSWYQQKPGKAPKLLIYGASNRYTGVPSRFSGSGSGTDFTLTISSLQPEDFADYYCGQTYNYPLTFGQGTKLEI
B16: clone 494 VH 2 / VL 1 (antibody, V domains shown)
VH: B3 VH with D61A
VL: B15 VL
B17: clone 494 VH 3 / VL 1 (antibody, V domains shown)
VH: B3 VH with V66G
VL: B15 VL
B18: clone 494 VH 3 / VL 0 (mu) (antibody, V domains shown)
VH: B3 VH with V66G
VL: B3 VL
B19: clone 494 VH 0 (mu) / VL 1 (antibody, V domains shown)
VH: EVQLQQSGAVLVKPGASVKLSCPASGFNIKDTYIHWVIQRPEQGLEWIGRIDPANGDTKCDPKFQVKATITADTSSNTAYLQLSSLTSEDTAVYFCVRDYLYPYYFDFWGQGTTLTVSS
VL: B15 VL
B20: clone 494 VH 0 (mu) / VL 4 (antibody, V domains shown)
VH: B19 VH
VL: B5 VL
B21: clone 494 VH 0 (mu) / VL 2 (antibody, V domains shown)
VH: B19 VH
VL: B5 VL with I58V
B22: clone 494 VH 0 (mu) / VL 3 (antibody, V domains shown)
VH: B19 VH
VL: B5 VL with K1E, I58V

Changes are numbered by the printed parent chain.

For the first assay, the target named is T1, human transferrin receptor (human, UniProt P02786 89-760).
T1 construct: also called huTfR; hTfR
T1 sequence (P02786 89-760 limits assumed): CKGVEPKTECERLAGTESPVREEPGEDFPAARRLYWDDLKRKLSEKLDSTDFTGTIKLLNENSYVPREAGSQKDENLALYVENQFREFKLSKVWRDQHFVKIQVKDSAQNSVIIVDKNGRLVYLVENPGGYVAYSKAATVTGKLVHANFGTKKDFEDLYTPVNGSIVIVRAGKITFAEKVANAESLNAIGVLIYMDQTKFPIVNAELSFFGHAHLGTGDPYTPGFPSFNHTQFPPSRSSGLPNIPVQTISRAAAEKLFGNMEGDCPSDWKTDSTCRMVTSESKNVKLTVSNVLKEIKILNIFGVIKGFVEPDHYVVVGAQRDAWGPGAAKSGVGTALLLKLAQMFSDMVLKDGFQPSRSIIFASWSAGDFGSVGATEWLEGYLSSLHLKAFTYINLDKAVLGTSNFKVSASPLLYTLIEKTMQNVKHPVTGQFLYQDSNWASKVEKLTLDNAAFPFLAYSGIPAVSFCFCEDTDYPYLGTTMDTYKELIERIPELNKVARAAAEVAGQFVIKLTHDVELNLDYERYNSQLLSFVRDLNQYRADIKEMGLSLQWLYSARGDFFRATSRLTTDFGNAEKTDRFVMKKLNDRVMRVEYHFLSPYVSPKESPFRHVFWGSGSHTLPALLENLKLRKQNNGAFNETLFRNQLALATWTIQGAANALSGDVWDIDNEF
Briefly: BIAcore.
Consider B1, for which the “BIAcore t1/2” value is 19 min.

Consider B2, for which the “BIAcore t1/2” value turned out to be 19 min.

In the next assay the target is T2, cynomolgus transferrin receptor (cynomolgus, UniProt H9EXL1 89-760 (rhesus entry)).
T2 construct: also called cyTfR; Cyno TfR
T2 sequence (chain, as listed by the source): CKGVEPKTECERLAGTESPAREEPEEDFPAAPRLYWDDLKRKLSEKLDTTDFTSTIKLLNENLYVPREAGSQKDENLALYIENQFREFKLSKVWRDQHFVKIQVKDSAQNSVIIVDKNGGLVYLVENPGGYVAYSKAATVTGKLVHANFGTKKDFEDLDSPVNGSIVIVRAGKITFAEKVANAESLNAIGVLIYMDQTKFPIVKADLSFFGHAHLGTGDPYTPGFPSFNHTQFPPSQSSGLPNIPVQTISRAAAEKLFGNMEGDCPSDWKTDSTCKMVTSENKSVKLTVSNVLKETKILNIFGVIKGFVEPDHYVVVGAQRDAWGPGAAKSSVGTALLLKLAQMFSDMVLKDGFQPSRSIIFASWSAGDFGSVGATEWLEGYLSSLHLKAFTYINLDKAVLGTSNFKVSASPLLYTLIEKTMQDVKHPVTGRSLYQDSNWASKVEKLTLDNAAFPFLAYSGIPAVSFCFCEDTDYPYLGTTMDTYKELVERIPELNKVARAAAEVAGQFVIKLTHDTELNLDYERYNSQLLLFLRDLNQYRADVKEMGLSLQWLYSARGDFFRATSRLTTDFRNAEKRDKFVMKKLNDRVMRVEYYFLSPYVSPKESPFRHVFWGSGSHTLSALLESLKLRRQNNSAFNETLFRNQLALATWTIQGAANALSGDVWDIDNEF
Briefly: BIAcore. In general terms: SPR reads the build-up and loss of mass on a sensor chip optically.
Turning to B1, the “BIAcore t1/2” value came out at 0.2 min.

Take B2: the “BIAcore t1/2” value was found to be 42 min.

The target in the next assay is T1, human transferrin receptor. The assay is described as follows: SPR off-rate.
B3 gave an off-rate (koff) of 0.000137 s⁻¹. On the same count and under the same terms, with B4 the figure was 0.000156 s⁻¹; with B5, 0.000657 s⁻¹; with B6, 0.000386 s⁻¹. The same measure, in the same setting: in the case of B7 it was 0.000438 s⁻¹; in that of B8, 0.000415 s⁻¹. Molecule B9 displayed a koff of 0.000452 s⁻¹.

Regarding B10, the off-rate constant (koff) was 0.000683 s⁻¹. Against the preceding molecule, the koff is about 1.5-fold higher.

Molecule B11 came in with an off-rate constant (koff) of 0.000177 s⁻¹. B12 returned a dissociation rate constant (koff) of 0.00043 s⁻¹. On the same count and under the same terms, in the case of B13 it was 0.000703 s⁻¹; in that of B14, 0.000399 s⁻¹. The same measure, in the same setting: in the case of B15 it was 0.000448 s⁻¹; in that of B16, 0.000454 s⁻¹. Consider B17, for which the off-rate constant (koff) was 0.000476 s⁻¹. On the same count and under the same terms, in the case of B18 it was 0.000148 s⁻¹; in that of B19, 0.00037 s⁻¹. Still for that read-out and setting: in the case of B20 it was 0.000542 s⁻¹; in that of B21, 0.000364 s⁻¹.

In the case of B22, the koff is 0.000339 s⁻¹. This koff and that of the molecule before are within 1.5-fold of each other.

The target in a further assay is T3, cynomolgus transferrin receptor on stably transfected CHO cells (cynomolgus).
T3 construct: whole, on cells; also called Cyno TfR-CHO; cyTfR (FACS)
The assay is described as follows: FACS on cyTfR CHO cells.
On to B1, for which the half-maximal effective concentration (EC50) was found to be 0.314 µg/mL.

A further assay deals with T3, cynomolgus transferrin receptor on …. The assay is described as follows: FACS, cyno against human TfR CHO cells. In general terms: Flow cytometry measures light scatter and fluorescence of single cells or particles in a stream.
Consider B1, for which the “ratio EC50 Cyno/ human” value is 3.3 and the “ratio max Cyno/ human” value was 0.6.

Take B2: the “ratio EC50 Cyno/ human” value is 0.9 and the “ratio max Cyno/ human” value was 1.

The target in a further assay is T2, cynomolgus transferrin receptor. Briefly: BIAcore B4000, biotinylated TfR captured (Example 14), 25 °C.
B1 displayed a koff of 0.0778 s⁻¹.

The target is the same in another assay. The assay is described as follows: BIAcore T200, biotinylated TfR captured (Example 13), 25 °C.
In turn, B1 came in with a dissociation constant (Kd) of 136 nM, an off-rate (koff) of 0.0733 s⁻¹ and a kon of 541000 M⁻¹ s⁻¹.

The koff is a measure of how fast the partners let go of each other. Lower therefore signals a long-lived complex. For orientation: EC50 means the concentration that produces a half-maximal response. By Kd is commonly meant the equilibrium constant for the complex coming apart. Read a high Kd as a looser complex. By kon is commonly meant a measure of how fast the partners come together.
